# Test results: patent publication US20260132182A1 (published 2026)
# Starred links: 1 amine or outer side, 2 acyl side, 3 side chain; linkers in the order of their positions; H or OH if unused. Non-standard residues stand in square brackets, D forms with d. Groups on a side chain read outwards from the residue. *: point of attachment. C20 diacid = O=C(O)CCCCCCCCCCCCCCCCCCC(=O)*; C18 diacid = O=C(O)CCCCCCCCCCCCCCCCC(=O)*; C16 diacid = O=C(O)CCCCCCCCCCCCCCC(=O)*; γGlu = O=C(O)[C@H](CCC(=O)[*:2])N[*:1]; εLys = N[C@@H](CCCCN[*:1])C(=O)[*:2]; Trx = NC[C@H]1CC[C@H](C(=O)O)CC1; AEEA = NCCOCCOCC(=O)O; Aib = CC(C)(N)C(=O)O
# T1: human amylin-3 (a) receptor (human, UniProt P30988 25-474; O60896 24-148)
# T1 sequence (looked up) 1: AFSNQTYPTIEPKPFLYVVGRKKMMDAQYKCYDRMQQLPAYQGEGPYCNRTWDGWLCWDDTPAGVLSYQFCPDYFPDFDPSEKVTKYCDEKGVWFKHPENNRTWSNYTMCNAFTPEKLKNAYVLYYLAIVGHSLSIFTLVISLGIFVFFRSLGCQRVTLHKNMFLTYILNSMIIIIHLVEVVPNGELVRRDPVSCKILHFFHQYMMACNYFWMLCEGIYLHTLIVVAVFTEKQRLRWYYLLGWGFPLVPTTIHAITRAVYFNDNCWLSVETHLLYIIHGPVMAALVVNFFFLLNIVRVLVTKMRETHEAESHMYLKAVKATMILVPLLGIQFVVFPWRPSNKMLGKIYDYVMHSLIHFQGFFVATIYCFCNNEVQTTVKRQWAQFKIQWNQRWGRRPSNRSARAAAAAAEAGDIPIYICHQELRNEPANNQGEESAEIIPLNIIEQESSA
# T1 sequence (looked up) 2: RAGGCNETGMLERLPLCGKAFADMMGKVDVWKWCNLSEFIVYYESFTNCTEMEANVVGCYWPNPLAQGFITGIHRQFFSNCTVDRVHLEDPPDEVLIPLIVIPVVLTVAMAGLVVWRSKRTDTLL
# B1: Compound 0433 (peptide)
# peptide: HWEGTFTSDK([εLys-AEEA-AEEA-γGlu-Trx-C20 diacid])SSYLEEQAAREFIEWLVRGRGEASELSTAALGRLSAELHELATLPRTETGSGSP-NH2
# B2: Compound 0045 (peptide)
# peptide: H[Aib]EGTFTSDVSSYLEGQAAKEFIAWLVRGRK([εLys-AEEA-AEEA-γGlu-C18 diacid])GGEASELSTAALGRLSAELHELATLPRTETGSGSP-NH2
# B3: Compound 0397 (peptide)
# peptide: H[Aib]EGTFTSDVSSYLEEK([AEEA-AEEA-γGlu-C16 diacid])AAREFIAWLVRGRGGGGGEASELSTAALGRLSAELHELATLK([AEEA-AEEA-γGlu-C16 diacid])RTETGSGSP-NH2
# B4: Compound 0411 (peptide)
# peptide: H[Aib]EGTFTSDVSSYLEEK([AEEA-AEEA-γGlu-C16 diacid])AAREFIAWLVRGRGGGGGEASELSTAALGRLSAELHELATLPRTETGK([AEEA-AEEA-γGlu-C16 diacid])GSP-NH2
# B5: Compound 0285 (peptide)
# peptide: H[Aib]EGTFTSDVSSYLEEQAAREFIAWLVRGK([AEEA-AEEA-γGlu-C16 diacid])GGGGGEASELSTAALGRLSAELHELATLPRTETGK([AEEA-AEEA-γGlu-C16 diacid])GSP-NH2
# B6: Compound 0299 (peptide)
# peptide: H[Aib]EGTFTSDVSSYLEEK([AEEA-AEEA-γGlu-C16 diacid])AAREFIAWLVRGRGGGGGEASELSTAALGRLSAELHK([AEEA-AEEA-γGlu-C16 diacid])LATLPRTETGSGSP-NH2
# B7: Compound 0396 (peptide)
# peptide: H[Aib]EGTFTSDVSSYLEEK([AEEA-AEEA-γGlu-C16 diacid])AAREFIAWLVRGRGGGGGEASELSTAALGRLSAELHELK([AEEA-AEEA-γGlu-C16 diacid])TLPRTETGSGSP-NH2
# B8: Compound 0292 (peptide)
# peptide: H[Aib]EGTFTSDK([AEEA-AEEA-γGlu-C16 diacid])SSYLEEQAAREFIAWLVRGRGGGGGASELSTAALGRLSK([AEEA-AEEA-γGlu-C16 diacid])ELHELATLPRTETGSGSP-NH2
# B9: Compound 0297 (peptide)
# peptide: H[Aib]EGTFTSDVSSYLEEQAAREFIAWLVRK([AEEA-AEEA-γGlu-C16 diacid])RGGGGGASELSTAALGRLSK([AEEA-AEEA-γGlu-C16 diacid])ELHELATLPRTETGSGSP-NH2
# B10: Compound 0431 (peptide)
# peptide: HAEGTFTSDK([AEEA-AEEA-γGlu-Trx-C20 diacid])SSYLEEQAAREFIEWLVRGRGEASELSTAALGRLSAELHELATLPRTETGSGSP-NH2
# B11: Compound 0414 (peptide)
# peptide: HAEGTFTSDVSSYLEEK([AEEA-AEEA-γGlu-Trx-C20 diacid])AAREFIEWLVRGRGEASELSTAALGRLSAELHELATLPRTETGSGSP-NH2
# B12: Compound 0436 (peptide)
# peptide: H[Aib]EGTFTSDVSSYLEEQAAKEFIEWLVRGRGEASELSTAALGRLSAELHELATLPRTETGSGSP-NH2
# modifications: not fully specified (residue 20)
# B13: Compound 0415 (peptide)
# peptide: H[Aib]EGTFTSDVSSYLEEK([AEEA-AEEA-γGlu-Trx-C20 diacid])AAREFIEWLVRGRGEASELSTAALGRLSAELHELATLPRTETGSGSP-NH2
# B14: Compound 0434 (peptide)
# peptide: HWEGTFTSDVSSYLEEK([εLys-AEEA-AEEA-γGlu-Trx-C20 diacid])AAREFIEWLVRGRGEASELSTAALGRLSAELHELATLPRTETGSGSP-NH2
# B15: Compound 0295 (peptide)
# peptide: H[Aib]EGTFTSDVSSYLEEK([AEEA-AEEA-γGlu-C16 diacid])AAREFIAWLVRGRGGGGGASELSTAALGRLSK([AEEA-AEEA-γGlu-C16 diacid])ELHELATLPRTETGSGSP-NH2
# B16: Compound 0435 (peptide)
# peptide: HWEGTFTSDVSSYLEEQAAK([εLys-AEEA-AEEA-γGlu-Trx-C20 diacid])EFIEWLVRGRGEASELSTAALGRLSAELHELATLPRTETGSGSP-NH2
# B17: Compound 0417 (peptide)
# peptide: H[Aib]EGTFTSK([AEEA-AEEA-γGlu-Trx-C20 diacid])VSSYLEEQAAREFIEWLVRGRGEASELSTAALGRLSAELHELATLPRTETGSGSP-NH2
# B18: Compound 0294 (peptide)
# peptide: H[Aib]EGTFTSDVSSYLEK([AEEA-AEEA-γGlu-C16 diacid])QAAREFIAWLVRGRGGGGGASELSTAALGRLSK([AEEA-AEEA-γGlu-C16 diacid])ELHELATLPRTETGSGSP-NH2
# B19: Compound 0296 (peptide)
# peptide: H[Aib]EGTFTSDVSSYLEEQAARK([AEEA-AEEA-γGlu-C16 diacid])FIAWLVRGRGGGGGASELSTAALGRLSK([AEEA-AEEA-γGlu-C16 diacid])ELHELATLPRTETGSGSP-NH2
# B20: Compound 0044 (peptide)
# peptide: H[Aib]EGTFTSDVSSYLEGQAAK([εLys-AEEA-AEEA-γGlu-C18 diacid])EFIAWLVRGRGGGEASELSTAALGRLSAELHELATLPRTETGSGSP-NH2
# B21: Compound 0416 (peptide)
# peptide: HAEGTFTSK([AEEA-AEEA-γGlu-Trx-C20 diacid])VSSYLEEQAAREFIEWLVRGRGEASELSTAALGRLSAELHELATLPRTETGSGSP-NH2
# Key:
# [1] = target: T1, human amylin-3 (a) receptor; assay: cell-based or functional assay
# [2] = target: human GLP-1 receptor (human, UniProt P43220 24-463); assay: cell-based or functional assay
Binder,Human AmyR3 potency [EC50 (pM)] [1] [pM],Human GLP-1R potency [EC50 (pM)] [2] [pM]
B1,12.9,30.7
B2,25.9,19.4
B3,18.5,3.8
B4,45.9,3.5
B5,78.9,19
B6,11.5,6
B7,32.8,4.8
B8,33.8,12
B9,46,30.2
B10,11.9,10.9
B11,17.7,11.2
B12,12.3,15.2
B13,16.1,10.3
B14,13.9,11.8
B15,32.7,4.8
B16,22.3,92.4
B17,21,97.8
B18,34.3,13.7
B19,29.9,4
B20,9.1,16
B21,18.3,105
